Test results: publication doi:10.1101/619841
pKd: −log10 of the molar value.

Legend:
[1] = molecular target: cross-linked and fluorescent HIV-1 CA tubes co-assembled from CA A14C/E45C and labelled CA K158C (HIV-1); experiment: TIRF microscopy biosensor, equilibrium binding
[2] = molecular target: cross-linked and fluorescent HIV-1 CA tubes co-assembled from CA A14C/E45C and labelled CA K158C (HIV-1); experiment: TIRF microscopy biosensor

| Substance | pKd [1] | stoichiometry N [1] | molar binding ratio (370 nM analyte) (molecules per CA) [2] |
| --- | --- | --- | --- |
| cyclophilin A labelled at Cys51 with Alexa Fluor 647 (from UniProt P62937 1-165) (natural protein) | 5.10 | 0.5 CypA per CA |  |
| full length CPSF6 fused at its N-terminus to GFP (natural protein) |  |  | 0.2 |
